# According to the supplement of paper PMC12042874:
# ± gives the uncertainty stated by the source.
# Assay: amyloid nucleation score (Sup35N fusion, yeast selection) (log enrichment); library NNK2; higher = more nucleation; inactive = no reads after selection
# How it was run: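 Growth for 7 days at 30°C on medium lacking adenine and uracil followed a 24-hour induction with 100 μM copper sulfate of psi-negative yeast expressing peptides of 20 random codons fused to Sup35N. Input and output plasmid inserts were sequenced with Illumina, and sequences with under 100 input reads were excluded. Nucleation score is the DiMSum log enrichment of output over input reads, centred on the mode score of non-aggregating sequences.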
row,Substance,amyloid nucleation score
1,SMGSPETC,-0.47 ± 1.1
2,NISGATMEVVIYHDAVCESN,-0.361 ± 0.63
3,TLLIMCGSISHSFPSECHWL,0.716 ± 0.15
4,RNIIFTWGLCC,5.913 ± 0.035
5,YNCSI,4.29 ± 0.11
6,VWPQCYLSLVF,-0.082 ± 0.49
7,KSRVVMRTHAHSALWKWPGR,1.64 ± 0.28
8,HRRVVAPNKCWMSLACFWDL,4.33 ± 0.053
9,RALLCGSDVSKRNHGRSFVF,0.05 ± 1
10,FWGIVKYMWIFSTTYLNVFL,3.22 ± 0.11
11,LVCSNWCIVPFMYGTRHRKE,9.299 ± 0.03
12,STGSNFDESSKQCFAFICKK,inactive
13,NQALTTSPHSYIRFSCTCMF,3.89 ± 0.14
14,TSSCFDCSFNMEFLMVLVSF,1.52 ± 0.2
15,CLKAFIWLRRLEGQI,0.082 ± 1.1
16,KPFELEIRGKGQRHVEVV,1.61 ± 0.26
17,MVHHGGCAWMSSACTCNVHC,0.313 ± 0.27
18,AVNCH,0.748 ± 0.19
19,CAFRASFLLT,0.04 ± 0.34
20,YHSFCWANMIHRINSIVRLL,inactive
21,GPCMMEGLIYREMSAGYTTV,0.416 ± 0.49
22,SHCCGFLRGGWNRAQFGYRT,3.38 ± 0.049
23,CGARRGCDSWTSSTAGKSVG,1.16 ± 0.61
24,QSGFEVSCLSDMDSCYRSRN,0.509 ± 0.31
25,YRLGGWEVNWRLDFYHRRGM,1.21 ± 0.32

row,Substance,amyloid nucleation score
1,TCGRYSYSWVFSESKS,inactive
2,LLFTGNLGFTVSRSLSRRDR,6.945 ± 0.069
3,MFAVLTGSIFKWKWWTIGFR,-0.265 ± 0.28
4,LASMMPSKIPN,inactive
5,NFKNATIAFIGNMTMIVPRG,8.291 ± 0.038
6,RYAQGRRWSYRLNRCLVGRC,1.81 ± 0.27
7,KNKQRYSPIITLLVTKSVAF,2.67 ± 0.056
8,QNLSSLFKVYGTSSC,-0.953 ± 0.38
9,FPLWSCSHTIINML,5.858 ± 0.037
10,FASSEVYTGVSYIIHVSVYS,-0.714 ± 1
11,FGMRTGWREGGESCSTHERG,1.14 ± 0.38
12,ILPYGVWTRIASIKLK,0.789 ± 0.17
13,SRGWTRMRSYVVSSDFILLK,0.178 ± 0.48
14,LAFFGVLSSFYSRFGIKTKM,-1.83 ± 0.54
15,YDERTWGTECMCTSCSCADK,1.24 ± 0.28
16,LCYWPYDSVYLLTRFTVNGF,-0.349 ± 0.25
17,GYRLGHRRGGFGVLNGFYGD,-0.157 ± 0.79
18,SSSREALCRKHDGVL,0.905 ± 0.45
19,VGFLW,2.22 ± 0.13
20,YEHLDIGNHKLGRCNRNFIA,-0.191 ± 1.1
21,FGIHHCLVCRLNLDFISGVD,-0.877 ± 0.62
22,SESVL,-1 ± 0.76
23,WLMKINRT,0.129 ± 0.26
24,TMRVHRYRTN,-0.493 ± 0.63
25,ISPLLNVYRDYWLYMF,-1.37 ± 0.75

row,Substance,amyloid nucleation score
1,ELCRCITFGLVCTFACYWVC,0.592 ± 0.2
2,RGSRVLSFILLRISNWIFQD,-0.239 ± 0.76
3,MWINHDPGWRCYYLYFPFL,3.59 ± 0.074
4,FWYFPDIIWG,inactive
5,AMNVDIN,-0.641 ± 0.24
6,VGSNKGAIIGLMVGGMVVIA,2.33 ± 0.21
7,YDLSASLVFGMFVNDLRRSR,5.68 ± 0.096
8,WNGQDGQGLVGLKRP,0.344 ± 0.23
9,RRDSVKCVSARGRISLLVSR,2.8 ± 0.056
10,GHVQSWGCVVLHEFSSISPE,5.488 ± 0.05
11,SHCSLEDG,1.22 ± 0.12
12,SQFAVRKEGTDSEEFLKSVV,-0.197 ± 0.48
13,TGLAIGCFLVCSVLYGDR,3.17 ± 0.13
14,LIYNVDSVMNFVRVDNYDSP,6.88 ± 0.087
15,AASRWVVSHKYRWWMMRLMK,0.302 ± 0.23
16,PFSLVTSITFFWSIMCIYAM,0.57 ± 0.81
17,FAEFKVQIYLSWLYPEIPVN,-0.455 ± 1.1
18,QVWSFDGCS,-0.15 ± 0.4
19,KLFFTDGFLYGNPLLSDGLD,-0.58 ± 0.39
20,LSAVLSAHIMVCLGYAYLG,inactive
21,LRGQEKLWGVACSLVLIVTA,1.39 ± 0.15
22,VFGPPWCLGHSHWILFYVGC,-0.519 ± 1
23,FECKCKVYTPAWGCHQYLIL,inactive
24,SKCNGFVVALMLVFTSSELD,inactive
25,STFLKATYRSHRRHW,0.962 ± 0.39

row,Substance,amyloid nucleation score
1,MYRPINFITCSVRMFVVIVC,inactive
2,NMYNLGFLSYYLKISGYLLD,-1.85 ± 1
3,GLRWNKFYKCTEVCMCRGSS,2.58 ± 0.15
4,TIQRRQFVNPDSVVMLRINY,-0.704 ± 0.76
5,NLYAPGSIYSASFFRVMTLG,-1.04 ± 0.48
6,ARSDLNMRTFFVWASLFVLS,4.43 ± 0.056
7,DCFFFKSWVSLGKIMLSTFS,-0.997 ± 1.1
8,FSDNTVNTQQVEGIYQIDPN,-0.705 ± 0.46
9,YSSAGGHRLMGMGRIRYKTG,0.026 ± 0.56
10,YQSDK,inactive
11,LRCSESCNLMNKYGWRRNQA,3.65 ± 0.081
12,ITCHGVVFSWLTRELLYTGL,-0.702 ± 0.45
13,SLVLLNRSANWIDLLNKQQD,3.62 ± 0.12
14,FSLPFC,0.246 ± 0.49
15,KVALL,-0.257 ± 0.76
16,EPGRRSYSWFCITRVFVMR,-0.171 ± 1
17,KLIMFCDMLKVRSNNFRSRK,5.55 ± 0.077
18,ESTLRVMGRKAISSGLMCIA,0.269 ± 0.28
19,SMGMLP,-0.641 ± 1.1
20,GWCRYLKDLYI,-1.1 ± 0.36
21,THMYCIMVYRRYSGSVGLGY,0.127 ± 0.77
22,RFEFIVMSLW,3.19 ± 0.06
23,TSIYYISNIA,0.568 ± 0.24
24,WNLRMYLNMGYMVLFNIQF,3.64 ± 0.099
25,VIFSGFFYISPTADPHDSFI,inactive

row,Substance,amyloid nucleation score
1,RKYTCSFRLFYRGVCFVT,-1.16 ± 0.76
2,LMFCIENLAVMESELMGSCR,0.464 ± 0.62
3,VGTISVFIIFHASHVGILHS,-1.65 ± 0.53
4,DRRMGLIVPRMSDRTDPFSY,0.489 ± 0.29
5,YLLIPWKSKDPLHIGLLF,-0.381 ± 1.1
6,SPSSQSKVISCLRVS,0.611 ± 0.81
7,LVRLFS,-0.701 ± 0.63
8,VAQVWLSNVVMYLRRAENLT,0.214 ± 0.26
9,KLISCGCVLADWNMGYP,3.76 ± 0.12
10,NVCLGFFPD,0.282 ± 0.8
11,DMMCLLFGAKFNVQTGTHS,5.231 ± 0.052
12,YAIGDNAA,0.111 ± 0.32
13,IKRSTNISEMWHYSFGVTVL,-1.09 ± 0.63
14,AIASLTRTFSA,0.167 ± 0.42
15,FVGDTIQVVIWLMIIYFWFF,0.959 ± 0.74
16,SVIITIGLSIKSALRFRRFQ,4.57 ± 0.058
17,NELLNTWRLLSCPWRIWSLR,0.67 ± 0.26
18,FYASLHNSFFSVLWTDMTFS,-0.487 ± 1.1
19,GFSWDNESFLCELKMGCLTG,-0.646 ± 0.31
20,HDYGLCTGVDIWITLSCCDR,9.637 ± 0.029
21,NCLYICVCGLCMFQKLRC,-0.246 ± 0.76
22,SGSRMFCVRHMIMSGGVLGS,-0.451 ± 0.54
23,GPCGVVVNFHRSCFCRFEFL,7.61 ± 0.082
24,RDSQWGLSRKDFSHACVLTY,-0.408 ± 0.48
25,TGDCC,0.32 ± 0.33

row,Substance,amyloid nucleation score
1,NVMSDYTFANTSITSCCY,-1.26 ± 0.64
2,LKCVHCYIRHLNFYFILPLC,inactive
3,QVCDRILTWSRLPLSISRVR,0.062 ± 0.79
4,LTSMRRCPGVYVGNCGVAGR,1 ± 0.35
5,SYNDWGFMKVGCL,-0.686 ± 0.39
6,FSNTYHFCISNYMWLNEVLM,1.36 ± 0.19
7,RSTQLNSGPTANK,1.21 ± 0.41
8,QCVVTVCDRL,1.73 ± 0.13
9,KGGWYNNYGAVNKNGWCSDK,-0.501 ± 1.1
10,FFLLVCVDGKTRRVD,0.8 ± 0.15
11,SVLER,-0.147 ± 1.1
12,NTLKVQIV,2.94 ± 0.075
13,YRPCGRTSPCGSGYKVSNEF,1.57 ± 0.15
14,QAGALFDKRQGLRYGWVVSM,-0.641 ± 0.41
15,SVGRTESAQYRKTV,0.568 ± 0.44
16,QSVYFILNNFKWFPGSTGM,7.062 ± 0.048
17,TYIQPVARRKHLA,0.101 ± 0.39
18,INIIMFNVFINLEHIYYSVG,5.79 ± 0.066
19,KSTGDCFLKMINYYCGWS,6.066 ± 0.052
20,SGSKGRASVNIIDR,0.131 ± 1
21,VTVKYRVVTDVLRTMRNDSV,0.297 ± 0.34
22,TMQSWFSAFYLVVDMPTRYC,-0.232 ± 0.29
23,SRVGFFS,0.072 ± 1.1
24,YFKTWAICHWFCNWRRLWMN,0.305 ± 1
25,DFVPNGCNCINSGWDFRQVD,-1.88 ± 0.64

row,Substance,amyloid nucleation score
1,FISMLAISDIRHALDWHTSV,0.979 ± 0.17
2,RVYMWLWIGWCRIG,0.58 ± 0.51
3,AIIPRMLKYRERGKPTKRDT,0.291 ± 0.24
4,VCNFLYNGLEFVNLECFWR,inactive
5,SLSFCVLEVSTCGCMSGYVG,10.24 ± 0.05
6,LVAFFFVSPFGGGHIAIRLR,-0.114 ± 1.1
7,RNVSNRPNAQIRKSVRCCWG,0.388 ± 0.42
8,RIVMLGFVN,-1.44 ± 0.54
9,VARRGALNVRHFFPGKREV,0.608 ± 0.47
10,VNVCTYTWLHVINERFTFQW,6.192 ± 0.045
11,HNVVRGFCLVFTIYHSGRTR,5.1 ± 0.082
12,LCEEICLDFFMVRMFKHASY,1.63 ± 0.11
13,VCFYPECVWQSILVLDFHVG,3.42 ± 0.079
14,CNRLVVLSSCNWYRDVADSL,0.115 ± 1
15,VWYSDDWSWWGARRLCKNRR,0.236 ± 1.1
16,TFLIGTV,-1.01 ± 0.5
17,DGKFRRVTLRGPLA,0.554 ± 0.56
18,HQVFPAKAGLPALVYLLGFY,0.602 ± 0.81
19,KNCFMIV,-2.26 ± 1
20,PFGKGKEHIKL,inactive
